T1: PLC-γ1 (H335A+D1165H), rat phospholipase C-γ1 residues 21–1215 (rat, UniProt P10686 21-1215, H335A | D1165H)
T1 construct: phospholipase C-γ1, rat, residues 21–1215, with H335A and D1165H; PDB 6PBC is the cited structure of the parent; also called oncogenic mutant of PLC-γ1; source: High Five (Trichoplusia ni) cells, baculovirus, purified (HisTrap IMAC, TEV cleavage, SourceQ, Superdex 200); not shown: His6, N-terminal, cleaved
T1 sequence (looked up): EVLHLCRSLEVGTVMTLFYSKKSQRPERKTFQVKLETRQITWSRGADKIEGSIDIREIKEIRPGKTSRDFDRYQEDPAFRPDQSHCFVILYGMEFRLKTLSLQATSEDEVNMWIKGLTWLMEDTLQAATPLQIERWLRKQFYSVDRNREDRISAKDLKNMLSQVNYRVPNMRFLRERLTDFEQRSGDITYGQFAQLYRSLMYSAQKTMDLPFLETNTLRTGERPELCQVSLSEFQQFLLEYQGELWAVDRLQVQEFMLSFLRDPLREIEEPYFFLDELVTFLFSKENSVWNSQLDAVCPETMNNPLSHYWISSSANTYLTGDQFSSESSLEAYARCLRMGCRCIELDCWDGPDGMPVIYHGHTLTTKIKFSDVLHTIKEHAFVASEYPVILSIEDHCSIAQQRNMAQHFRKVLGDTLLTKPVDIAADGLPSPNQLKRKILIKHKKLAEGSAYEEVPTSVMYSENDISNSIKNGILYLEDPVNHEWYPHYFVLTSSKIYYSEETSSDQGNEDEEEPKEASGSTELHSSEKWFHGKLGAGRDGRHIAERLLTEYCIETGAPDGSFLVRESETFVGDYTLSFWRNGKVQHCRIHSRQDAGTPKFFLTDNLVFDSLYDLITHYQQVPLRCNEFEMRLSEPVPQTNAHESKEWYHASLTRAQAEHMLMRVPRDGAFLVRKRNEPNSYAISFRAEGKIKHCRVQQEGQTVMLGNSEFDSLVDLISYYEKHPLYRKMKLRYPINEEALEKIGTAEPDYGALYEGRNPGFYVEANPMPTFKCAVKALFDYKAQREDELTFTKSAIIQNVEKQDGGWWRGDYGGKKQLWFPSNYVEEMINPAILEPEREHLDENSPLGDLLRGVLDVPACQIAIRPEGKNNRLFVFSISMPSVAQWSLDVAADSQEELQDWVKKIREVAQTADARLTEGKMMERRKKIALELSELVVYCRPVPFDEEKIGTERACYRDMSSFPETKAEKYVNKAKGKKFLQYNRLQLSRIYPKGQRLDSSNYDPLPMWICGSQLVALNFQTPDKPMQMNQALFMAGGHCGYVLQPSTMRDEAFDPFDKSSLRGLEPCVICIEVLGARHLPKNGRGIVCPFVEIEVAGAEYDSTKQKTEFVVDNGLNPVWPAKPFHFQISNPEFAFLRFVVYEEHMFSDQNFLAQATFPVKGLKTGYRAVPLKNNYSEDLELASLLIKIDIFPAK

T2: PLC-γ1 (H335A), rat phospholipase C-γ1 residues 21–1215 (rat, UniProt P10686 21-1215, H335A)
T2 construct: phospholipase C-γ1, rat, residues 21–1215, with H335A; source: High Five (Trichoplusia ni) cells, baculovirus, purified (HisTrap IMAC, TEV cleavage, SourceQ, Superdex 200); not shown: His6, N-terminal, cleaved
T2 sequence (looked up): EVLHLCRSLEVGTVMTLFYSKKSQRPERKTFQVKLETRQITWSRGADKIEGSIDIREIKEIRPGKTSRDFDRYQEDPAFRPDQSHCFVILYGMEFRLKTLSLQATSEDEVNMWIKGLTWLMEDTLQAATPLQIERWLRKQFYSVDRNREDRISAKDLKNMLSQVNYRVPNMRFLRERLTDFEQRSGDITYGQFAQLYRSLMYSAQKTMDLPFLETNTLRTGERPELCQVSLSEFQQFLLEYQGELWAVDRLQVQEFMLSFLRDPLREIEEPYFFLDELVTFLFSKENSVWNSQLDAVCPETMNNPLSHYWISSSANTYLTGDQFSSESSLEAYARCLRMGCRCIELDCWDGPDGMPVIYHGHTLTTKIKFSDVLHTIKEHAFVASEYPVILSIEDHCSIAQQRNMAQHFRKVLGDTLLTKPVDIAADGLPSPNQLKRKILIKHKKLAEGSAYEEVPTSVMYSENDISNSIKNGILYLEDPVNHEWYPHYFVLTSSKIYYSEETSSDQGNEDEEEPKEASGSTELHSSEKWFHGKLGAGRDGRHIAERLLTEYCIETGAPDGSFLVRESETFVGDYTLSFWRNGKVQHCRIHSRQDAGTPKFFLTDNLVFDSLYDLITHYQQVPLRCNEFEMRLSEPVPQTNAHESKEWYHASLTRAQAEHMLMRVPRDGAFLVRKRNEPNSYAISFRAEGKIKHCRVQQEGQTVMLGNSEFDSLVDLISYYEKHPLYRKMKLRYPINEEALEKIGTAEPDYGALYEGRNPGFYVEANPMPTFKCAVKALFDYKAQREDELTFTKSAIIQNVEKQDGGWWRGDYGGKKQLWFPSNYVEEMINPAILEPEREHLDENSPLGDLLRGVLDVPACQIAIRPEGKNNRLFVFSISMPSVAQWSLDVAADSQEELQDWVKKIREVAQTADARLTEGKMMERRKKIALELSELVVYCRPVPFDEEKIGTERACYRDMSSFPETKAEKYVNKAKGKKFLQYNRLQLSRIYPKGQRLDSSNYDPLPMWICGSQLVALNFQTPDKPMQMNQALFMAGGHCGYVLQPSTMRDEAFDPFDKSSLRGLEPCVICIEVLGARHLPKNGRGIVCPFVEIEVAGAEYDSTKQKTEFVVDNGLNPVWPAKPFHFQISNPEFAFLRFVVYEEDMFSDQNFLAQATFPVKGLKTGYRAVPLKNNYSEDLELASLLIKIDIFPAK

T3: wild-type PLC-γ1, rat phospholipase C-γ1 residues 21–1215 (rat, UniProt P10686 21-1215)
T3 sequence (looked up): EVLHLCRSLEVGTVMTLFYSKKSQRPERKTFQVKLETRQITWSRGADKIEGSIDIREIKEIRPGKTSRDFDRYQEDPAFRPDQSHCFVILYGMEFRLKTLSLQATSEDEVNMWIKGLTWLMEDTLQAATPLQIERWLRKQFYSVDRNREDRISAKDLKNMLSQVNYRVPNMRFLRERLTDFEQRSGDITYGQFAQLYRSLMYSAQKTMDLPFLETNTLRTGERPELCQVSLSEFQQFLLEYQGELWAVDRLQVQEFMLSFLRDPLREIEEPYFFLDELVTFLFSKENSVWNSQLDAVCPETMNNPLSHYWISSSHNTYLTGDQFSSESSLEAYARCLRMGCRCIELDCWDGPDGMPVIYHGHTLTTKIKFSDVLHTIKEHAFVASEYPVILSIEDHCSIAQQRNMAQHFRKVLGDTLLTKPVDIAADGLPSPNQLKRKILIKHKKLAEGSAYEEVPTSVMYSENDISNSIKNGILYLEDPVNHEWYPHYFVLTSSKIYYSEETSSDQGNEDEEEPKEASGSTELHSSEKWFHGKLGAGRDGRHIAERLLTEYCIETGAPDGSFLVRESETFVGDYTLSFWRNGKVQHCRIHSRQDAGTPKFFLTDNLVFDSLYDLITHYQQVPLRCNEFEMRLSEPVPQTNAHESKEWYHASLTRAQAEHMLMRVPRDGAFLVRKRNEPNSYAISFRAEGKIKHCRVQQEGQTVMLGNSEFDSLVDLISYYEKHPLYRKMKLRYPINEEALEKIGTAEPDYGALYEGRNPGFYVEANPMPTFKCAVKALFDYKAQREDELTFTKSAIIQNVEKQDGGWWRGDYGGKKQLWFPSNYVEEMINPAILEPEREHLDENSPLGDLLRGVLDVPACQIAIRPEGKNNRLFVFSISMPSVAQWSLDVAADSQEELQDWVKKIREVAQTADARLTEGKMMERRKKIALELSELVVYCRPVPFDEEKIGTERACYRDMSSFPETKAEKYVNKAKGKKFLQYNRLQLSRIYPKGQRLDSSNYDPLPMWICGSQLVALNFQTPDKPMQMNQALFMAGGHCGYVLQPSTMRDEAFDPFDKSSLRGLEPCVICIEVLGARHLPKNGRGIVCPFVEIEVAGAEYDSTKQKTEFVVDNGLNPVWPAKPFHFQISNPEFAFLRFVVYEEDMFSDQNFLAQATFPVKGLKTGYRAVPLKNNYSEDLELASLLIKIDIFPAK

T4: PLC-γ1 (D1165H), rat phospholipase C-γ1 residues 21–1215 (rat, UniProt P10686 21-1215, D1165H)
T4 sequence (looked up): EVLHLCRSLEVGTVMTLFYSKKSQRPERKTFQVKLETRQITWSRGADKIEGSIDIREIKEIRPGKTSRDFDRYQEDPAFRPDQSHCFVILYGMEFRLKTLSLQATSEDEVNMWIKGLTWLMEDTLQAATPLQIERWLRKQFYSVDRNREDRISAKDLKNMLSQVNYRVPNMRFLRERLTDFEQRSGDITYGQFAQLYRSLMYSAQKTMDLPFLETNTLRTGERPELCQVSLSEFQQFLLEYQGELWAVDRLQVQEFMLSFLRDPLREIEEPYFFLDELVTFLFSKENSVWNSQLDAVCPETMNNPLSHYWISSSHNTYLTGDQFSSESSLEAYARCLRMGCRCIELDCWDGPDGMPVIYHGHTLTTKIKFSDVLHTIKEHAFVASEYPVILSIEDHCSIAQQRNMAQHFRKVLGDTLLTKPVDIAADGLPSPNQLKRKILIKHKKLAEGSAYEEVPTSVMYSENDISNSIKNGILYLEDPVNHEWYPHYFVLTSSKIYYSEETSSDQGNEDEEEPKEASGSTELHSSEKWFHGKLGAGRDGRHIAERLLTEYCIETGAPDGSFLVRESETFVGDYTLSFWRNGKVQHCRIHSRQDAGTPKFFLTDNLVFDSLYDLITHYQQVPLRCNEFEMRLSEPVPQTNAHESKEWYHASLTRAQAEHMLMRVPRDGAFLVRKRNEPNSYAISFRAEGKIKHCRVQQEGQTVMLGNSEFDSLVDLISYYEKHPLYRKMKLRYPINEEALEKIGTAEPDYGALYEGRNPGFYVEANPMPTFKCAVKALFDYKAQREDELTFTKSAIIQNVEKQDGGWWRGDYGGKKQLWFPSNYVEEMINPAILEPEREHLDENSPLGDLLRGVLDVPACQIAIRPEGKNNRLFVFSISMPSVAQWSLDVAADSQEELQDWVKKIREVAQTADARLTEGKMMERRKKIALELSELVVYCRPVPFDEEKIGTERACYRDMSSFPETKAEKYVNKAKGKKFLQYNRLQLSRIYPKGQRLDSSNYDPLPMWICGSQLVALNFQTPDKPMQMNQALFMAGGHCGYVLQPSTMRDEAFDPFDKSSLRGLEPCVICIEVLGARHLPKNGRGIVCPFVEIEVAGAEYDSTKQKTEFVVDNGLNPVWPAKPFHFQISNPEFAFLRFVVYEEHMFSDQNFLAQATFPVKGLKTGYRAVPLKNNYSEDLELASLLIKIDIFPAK


Experiments:
[1] = biological target: PLC-γ1 pTyr783 peptide peptide encompassing pTyr783 (Homo sapiens) (UniProt P19174); conditions: cited from earlier work
[2] = biological target: T1, PLC-γ1 (H335A+D1165H), rat …; experiment: SEC; PLC-γ1 variant mixed with phosphorylated kinase-inactive FGFR1K (two-fold molar excess of one partner), Superdex 200 GL 10 mm x 300 mm, 20 mM HEPES pH 7.5, 100 mM NaCl, 10 mM MgCl2, 2 mM DTT; fractions by SDS-PAGE and Coomassie; complex of PLC-γ1 (H335A) run again after 8 hr on ice; conditions: both partners purified
[3] = biological target: T2, PLC-γ1 (H335A), rat phospholipase C-γ1 …; experiment: as above; conditions: both partners purified
[4] = biological target: T3, wild-type PLC-γ1, rat phospholipase …; experiment: cell-based or functional assay
[5] = biological target: T4, PLC-γ1 (D1165H), rat phospholipase C-γ1 …; experiment: cell-based or functional assay

Molecule | Kd [1] [µM] | binding result [2] | binding result [3] | specific lipase activity of PLC-γ1 (10 nM) on XY-69 in PE:PIP2 (80:20) liposomes, pre-incubated with a two-fold molar excess of pFGFR1K, against PLC-γ1 alone [4] [fold] | basal lipase activity of PLC-γ1 (D1165H) (0.3 nM) on XY-69 in PE:PIP2 (80:20) liposomes with a two-fold molar excess of pFGFR1K, against PLC-γ1 (D1165H) alone [5] [fold]
PLC-γ1 cSH2 domain cSH2 (from UniProt P19174) | 0.36 | – | – | – | –
kinase-inactive kinase domain of human FGFR1 (residues 458–774) phosphorylated at Tyr766 (domain or fragment, UniProt P11362 458-774, looked up, phosphotyrosine at 766, fibroblast growth factor receptor 1, human, kinase domain residues 458–774, six tyrosines changed to phenylalanine; Phosphorylation specifically at Tyr766 confirmed by LC-MS/MS; also called pFGFR1K; phosphorylated FGFR1K; source: High Five cells, baculovirus, purified (HisTrap IMAC, TEV cleavage, Superdex 200); phosphorylated in vitro with His6-tagged kinase-active FGFR1K (Y766F), separated by …) AGVSEFELPEDPRWELPRDRLVLGKPLGEGCFGQVVLAEAIGLDKDKPNRVTKVAVKMLKSDATEKDLSDLISEMEMMKMIGKHKNIINLLGACTQDGPLYVIVEYASKGNLREYLQARRPPGLEFCFNPSHNPEEQLSSKDLVSCAYQVARGMEYLASKKCIHRDLAARNVLVTEDNVMKIADFGLARDIHHIDFFKKTTNGRLPVKWMAPEALFDRIYTHQSDVWSFGVLLWEIFTLGGSPYPGVPVEELFKLLKEGHRMDKPSNCTNELFMMMRDCWHAVPSQRPTFKQLVEDLDRIVALTSNQEYLDLSMPLD | – | binds | binds | ~3 | ~2

Source: paper PMC9203054, “Dynamics of allosteric regulation of the phospholipase C-γ isozymes upon recruitment to membranes” (eLife, 2022)
